These results are taken from patent US20240385191A1 (NORDIC BIOSCIENCE A S, published 2024).

T1: non-sense KLH-conjugated peptide IRQCPDRTYG-GGC-KLH
T1 peptide: IRQCPDRTYGGGC(KLH)

T2: non-sense coater peptide Biotin-SHAHQRTGGN
T2 construct: Control coater on the streptavidin plate
T2 peptide: Biotin-SHAHQRTGGN

B1: monoclonal antibody targeting PRO-C20 (antibody produced by the best performing clone) (antibody, V domains shown)
VH: QIQLMQSGPELKKPGETVKISCKASGYPFTDYSMHWVKQAPGKGLKWMGWINTETGEPTYADGFKGRFAFSLETSASTAYLKINNLKNDDTATYFCARGPYWGQGTLVTVSA
VL: DVLLTQTPLSLPVSLGDQASISCRSSQSIVHNNGKIYLEWFLQKPGQSPKALIQKVSNRFSGVPDRFSGSGSGTDFTLKISRVEAEDLGVYYCFQGSHVPYTFGGGTKLEIKR
notes: Mouse hybridoma antibody (Balb/C mice), purified on protein G and HRP-labelled in the final ELISA; also called HRP-labelled monoclonal antibody; the monoclonal antibody
B2: standard peptide RHLEGRGEPGAVGQMGSPGQQGASTQGLWE (peptide)
peptide: RHLEGRGEPGAVGQMGSPGQQGASTQGLWE
notes: Synthetic 30-mer corresponding to the C-terminus of type XX collagen; also called 30 amino-acid variant

For experiment [1], the target named is T1, non-sense KLH-conjugated peptide …. Kind of experiment: preliminary competitive ELISA for clone selection. A general note: ELISA stands for enzyme-linked immunosorbent assay.
Experiment [2] addresses T2, non-sense coater peptide …. The experiment can be described thus: ELISA with the non-sense biotinylated peptide as coater on a streptavidin plate. The protocol: Several optimizations were made to the ELISA including the choice of assay buffer, incubation time and temperature as well as concentrations of antibody and peptides. […] After washing five times with washing buffer (25 mM Tris, 50 mM NaCl, pH 7.2), 20 μL/well of sample was added in duplicates followed by 100 μL/well of 50 ng/mL HRP-labelled monoclonal antibody in assay buffer and incubated for 1 hour at 20° C. with shaking at 300 RPM. After a second washing cycle, 100 μL/well of TMB was added and incubated for 15 minutes in darkness at 20° C. with shaking at 300 RPM. The reaction was stopped by adding 100 μL/well of 1% H₂SO₄. Absorbance was measured at 450 nm with 650 nm as reference. To generate a standard curve, 20 μL/well of 50 ng/ml standard peptide ([…] (SEQ ID NO: 6)), serially diluted two-fold, was added to appropriate wells and a four-parametric logistic regression model was used to fit a curve. […]
Antibody specificity was evaluated by the inhibition of signal by two-fold serial dilutions of the standard peptide ([…] (SEQ ID NO: 6)), elongated peptide ([…] (SEQ ID NO: 2)), truncated peptide ([…] (SEQ ID NO: 3)) as well as a non-sense standard peptide ([…] (SEQ ID NO: 8)) and a non-sense coater peptide (Biotin-[…] (SEQ ID NO: 9)).

The target in experiment [3] is B1. The experiment can be described thus: competitive ELISA: standard peptide against coated Biotin-… for the HRP-labelled antibody. The procedure: After washing five times with washing buffer (25 mM Tris, 50 mM NaCl, pH 7.2), 20 μL/well of sample was added in duplicates followed by 100 μL/well of 50 ng/mL HRP-labelled monoclonal antibody in assay buffer and incubated for 1 hour at 20° C. with shaking at 300 RPM. After a second washing cycle, 100 μL/well of TMB was added and incubated for 15 minutes in darkness at 20° C. with shaking at 300 RPM. The reaction was stopped by adding 100 μL/well of 1% H₂SO₄. Absorbance was measured at 450 nm with 650 nm as reference. […]
Assay variation was tested by running ten independent run of the assay using ten quality control samples in double determinations. […] Intra-assay variation was calculated as the mean coefficient of variance (CV %) between the double determinations on each of the ten runs. Inter-assay variation was calculated as the overall CV % for all determinations on the ten runs. Lower-and upper-limit of the measurement range (LLMR and ULMR) were determined as the concentrations that denotes the limits of the linear range of the assay. Lower limit of detection was calculated as the mean interpolated concentration of 21 blank samples, only containing assay buffer, plus three standard deviations. Upper limit of detection was calculated as the mean interpolated concentration of standard peptide corresponding to the highest concentration of the standard curve minus three standard deviations.

No end group written: not given here. *: point of attachment. Biotin = O=C1N[C@H]2[C@H](CS[C@H]2CCCCC(=O)*)N1; KLH = keyhole limpet hemocyanin

For the molecule B1, the binding result in experiment [1] and in experiment [2] was “no binding” throughout.
Broadly, the IC50 is the concentration needed to halve the response being measured. Low readings indicate greater potency, high ones weaker potency. As for B2, the IC50 in experiment [3] stood at 5.59 ng/mL.
